Key:
[1] = molecular target: YPet (Yellow fluorescent Protein for energy transfer); assay: SEC-MALS; in line with SAXS; 100 μl of 260 μM YPet or 230 μM mCLIFY injected, Shodex 804 column, PBS, room temperature; 53 μM (YPet) and 48 μM (mCLIFY) at peak
[2] = molecular target: YPet (Yellow fluorescent Protein for energy transfer); assay: AUC; sedimentation velocity on cleared bacterial lysates of expressing cultures, detection at 515 nm; 4.6 μM YPet in 14.3 mg/mL lysate, 6.2 μM mCLIFY in 13.7 mg/ml lysate
[3] = molecular target: YPet (Yellow fluorescent Protein for energy transfer); assay: AUC; sedimentation velocity, purified protein, 20 °C, PBS, 2-40 μM monomer, 40,000 rpm; c(s) fits in SEDFIT; monomer-dimer association model in SEDPHAT; constant is of dimer to monomers
[4] = molecular target: YPet (Yellow fluorescent Protein for energy transfer); assay: SEC-SAXS; synchrotron SAXS in line with SEC; 260 μM YPet or 230 μM mCLIFY injected, PBS, room temperature; SVD-EFA, mass from Qr and Porod

“YPet (Yellow fluorescent Protein for energy transfer)” gave a stoichiometry N [1] of 2, a stoichiometry N [2] of 2 and a Kd [3] of 3.4 µM. The stoichiometry N [3] was 2 and the stoichiometry N [4] was 2.
